Reference: paper PMC8079415 (2021)

Target: full-length human Bcl-2 protein (human, UniProt P10415 1-239)
Assay: NMR; 5 mM DPC micelles, pH 6.0, 310 K

full-length human Bcl-2 protein, sequence (P10415 other isoform, or with tags, fused parts or gaps): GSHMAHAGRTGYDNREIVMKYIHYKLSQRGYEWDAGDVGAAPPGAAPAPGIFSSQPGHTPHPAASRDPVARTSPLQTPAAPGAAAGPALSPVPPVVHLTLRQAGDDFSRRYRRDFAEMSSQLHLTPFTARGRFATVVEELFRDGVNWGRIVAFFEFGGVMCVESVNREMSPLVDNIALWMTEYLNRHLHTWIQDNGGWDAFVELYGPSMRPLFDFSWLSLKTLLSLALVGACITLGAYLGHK

B1: 36-mer Bax-BH3 peptide from Mus musculus (peptide)
peptide: Ac-QPPQDASTKKLSECLRRIGDELDSNMELQRMIADVD-NH2
In the case of B1, the Kd is reported as 143 µM.
